Measurements published in PMC12856154.

Target: persulfide dioxygenase from Pseudomonas aeruginosa (PaPDO) (Pseudomonas aeruginosa)
Assay: SEC; Superdex 75 10/300, 20 mM Tris-HCl pH 8.0, 200 mM NaCl, 1 mL/min; calibrated with protein standards; elution at 10.8 mL

- stoichiometry N: 2
Substance: persulfide dioxygenase from Pseudomonas aeruginosa (PaPDO) (enzyme)
